The record followed here is patent US20250368686A1, “PEPTIDE DRUGS FOR S[…] D[…] BLOCKING HOMO- AND HETERO-DIMERIZATION OF OPIOID RECEPTORS” (OKINAWA INSTITUTE OF SCIENCE AND TECHNOLOGY SCHOOL …, priority 2022, published 2025).

The target of experiment [1] is δ-type opioid receptor (DOR), rat, wild type, fluorescently tagged, expressed in the PM of CHO-K1 cells (Example 1) (rat) (UniProt P33533). Put plainly: distribution of colocalisation durations with WT-DOR; single-molecule imaging.
In experiment [2] the target is µ-type opioid receptor (MOR), rat, wild type, fluorescently tagged, expressed in the PM of CHO-K1 cells (Example 1) (rat) (UniProt P33535). Nature of the experiment: distribution of colocalisation durations with WT-MOR; single-molecule imaging.
Experiment [3] deals with SNAPf-DOR: rat DOR with the SNAPf tag protein at its N-terminus, expressed in the PM of CHO-K1 cells (Example 2) (rat) (UniProt P33533). Nature of the experiment: single-molecule imaging, PCCF fit; copies/um2.
Experiment [4] shares this target. Nature of the experiment: single-molecule imaging, homodimer 2D-KD; copies/um2; + agonist.
For experiment [5] the target is unchanged. Nature of the experiment: single-molecule imaging, homodimer 2D-KD; copies/um2; - agonist.

As to “MORΔ32-61 (MOR N-terminal deletion mutant) (from UniProt P33535 1-31; P33535 62-398) (receptor)”, in experiment [1], the dimer lifetime (τ2) worked out at 91 ms. In turn, “DORΔ22-42 (DOR N-terminal deletion mutant) (from UniProt P33533 1-21; P33533 43-372) (receptor)” had a dimer lifetime (τ2) in experiment [2] of 88 ms. For the substance “SNAPf-DOR: rat DOR with the SNAPf tag protein at its N-terminus, expressed in the PM of CHO-K1 cells (Example 2) (from UniProt P33533 1-372)”, the Kd in experiment [3] is 7.91 ?; in experiment [4], 3.58 ?; in experiment [5], 7.91 ?.
